In patent US20250313625A1 (ELPISCIENCE SUZHOU BIOPHARMA, published 2025):

T1: human LAG3, full length, stably expressed on cells (human, UniProt P18627 23-525)
T1 construct: whole, on cells; also called CHOK1-human LAG3
T1 sequence (looked up): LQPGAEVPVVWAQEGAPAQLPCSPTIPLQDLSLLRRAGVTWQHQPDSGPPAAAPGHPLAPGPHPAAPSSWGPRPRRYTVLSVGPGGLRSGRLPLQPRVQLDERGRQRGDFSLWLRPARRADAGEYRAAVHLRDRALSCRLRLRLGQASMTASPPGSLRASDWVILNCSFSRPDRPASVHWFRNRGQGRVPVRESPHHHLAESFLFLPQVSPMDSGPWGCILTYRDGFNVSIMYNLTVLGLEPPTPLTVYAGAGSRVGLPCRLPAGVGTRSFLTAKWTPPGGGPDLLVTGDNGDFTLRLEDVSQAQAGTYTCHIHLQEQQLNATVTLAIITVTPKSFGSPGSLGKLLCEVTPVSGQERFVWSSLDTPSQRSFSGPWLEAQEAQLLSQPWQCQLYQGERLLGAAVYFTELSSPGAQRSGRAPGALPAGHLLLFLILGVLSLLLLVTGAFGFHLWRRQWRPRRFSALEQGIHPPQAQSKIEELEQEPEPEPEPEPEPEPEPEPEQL

T2: mFc tagged human LAG3 ECD recombinant protein (human, UniProt P18627 23-450)
T2 construct: extracellular domain; purchased from Biointron; not shown: mouse IgG Fc (mFc) tag
T2 sequence (looked up): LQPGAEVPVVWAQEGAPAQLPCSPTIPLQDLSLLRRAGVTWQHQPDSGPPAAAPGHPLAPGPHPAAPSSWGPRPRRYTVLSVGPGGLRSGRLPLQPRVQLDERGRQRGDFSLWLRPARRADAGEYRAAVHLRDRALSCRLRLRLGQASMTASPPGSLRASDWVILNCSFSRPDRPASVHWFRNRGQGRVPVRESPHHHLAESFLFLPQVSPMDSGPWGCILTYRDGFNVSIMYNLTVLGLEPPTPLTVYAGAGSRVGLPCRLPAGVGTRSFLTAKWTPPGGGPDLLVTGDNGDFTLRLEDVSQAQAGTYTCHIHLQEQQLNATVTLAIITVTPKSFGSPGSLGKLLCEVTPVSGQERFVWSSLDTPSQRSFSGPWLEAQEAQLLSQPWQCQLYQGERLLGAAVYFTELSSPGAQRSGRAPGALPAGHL

T3: human LAG3 ECD recombinant protein (plate coated, tag not stated) (human, UniProt P18627 23-450)
T3 construct: extracellular domain
T3 sequence (looked up): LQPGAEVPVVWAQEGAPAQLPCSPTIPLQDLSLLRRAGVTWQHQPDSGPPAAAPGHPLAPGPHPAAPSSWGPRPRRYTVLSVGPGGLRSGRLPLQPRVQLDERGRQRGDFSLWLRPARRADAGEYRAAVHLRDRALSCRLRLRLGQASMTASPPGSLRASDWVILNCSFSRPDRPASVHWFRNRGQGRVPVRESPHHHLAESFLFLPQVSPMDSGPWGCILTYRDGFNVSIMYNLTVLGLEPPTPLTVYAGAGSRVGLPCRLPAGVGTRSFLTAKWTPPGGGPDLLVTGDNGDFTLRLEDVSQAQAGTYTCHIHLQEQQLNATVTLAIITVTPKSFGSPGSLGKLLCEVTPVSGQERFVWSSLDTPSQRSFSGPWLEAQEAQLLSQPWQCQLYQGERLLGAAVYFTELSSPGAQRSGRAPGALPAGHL

T4: hFc tagged human LAG3 D1-D2 recombinant protein (human, UniProt P18627 23-261)
T4 construct: range 23-261; generated by Chempartner; also called hLAG3 D1-D2; not shown: human IgG Fc tag
T4 sequence (looked up): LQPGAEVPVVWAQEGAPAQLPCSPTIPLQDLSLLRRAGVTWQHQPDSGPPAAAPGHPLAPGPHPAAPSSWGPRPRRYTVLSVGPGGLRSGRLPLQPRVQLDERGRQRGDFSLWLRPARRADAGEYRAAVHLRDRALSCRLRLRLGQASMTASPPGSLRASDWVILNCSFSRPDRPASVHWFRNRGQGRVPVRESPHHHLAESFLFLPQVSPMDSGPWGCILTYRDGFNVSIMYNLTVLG

T5: mouse LAG3, full length, stably expressed on CHOK1 cells (mouse, UniProt Q61790 24-521)
T5 construct: whole, on cells
T5 sequence (looked up): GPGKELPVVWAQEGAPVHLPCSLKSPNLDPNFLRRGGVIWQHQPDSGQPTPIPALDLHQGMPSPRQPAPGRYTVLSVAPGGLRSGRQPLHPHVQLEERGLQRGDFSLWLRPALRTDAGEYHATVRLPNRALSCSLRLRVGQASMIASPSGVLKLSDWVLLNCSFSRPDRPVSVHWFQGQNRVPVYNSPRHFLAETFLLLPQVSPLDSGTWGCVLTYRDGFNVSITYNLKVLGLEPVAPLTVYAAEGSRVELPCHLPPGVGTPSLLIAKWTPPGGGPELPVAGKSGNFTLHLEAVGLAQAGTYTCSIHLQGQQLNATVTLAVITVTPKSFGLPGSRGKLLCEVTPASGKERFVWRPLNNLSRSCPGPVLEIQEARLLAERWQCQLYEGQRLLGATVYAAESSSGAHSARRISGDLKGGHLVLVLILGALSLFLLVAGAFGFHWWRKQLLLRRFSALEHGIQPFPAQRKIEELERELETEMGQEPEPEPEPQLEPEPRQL

T6: hFc tagged human LAG3 ECD recombinant protein (human, UniProt P18627 23-450)
T6 construct: range 23-450; also called biotin labelled hFc tagged human LAG3 ECD; not shown: human IgG Fc tag
T6 sequence (looked up): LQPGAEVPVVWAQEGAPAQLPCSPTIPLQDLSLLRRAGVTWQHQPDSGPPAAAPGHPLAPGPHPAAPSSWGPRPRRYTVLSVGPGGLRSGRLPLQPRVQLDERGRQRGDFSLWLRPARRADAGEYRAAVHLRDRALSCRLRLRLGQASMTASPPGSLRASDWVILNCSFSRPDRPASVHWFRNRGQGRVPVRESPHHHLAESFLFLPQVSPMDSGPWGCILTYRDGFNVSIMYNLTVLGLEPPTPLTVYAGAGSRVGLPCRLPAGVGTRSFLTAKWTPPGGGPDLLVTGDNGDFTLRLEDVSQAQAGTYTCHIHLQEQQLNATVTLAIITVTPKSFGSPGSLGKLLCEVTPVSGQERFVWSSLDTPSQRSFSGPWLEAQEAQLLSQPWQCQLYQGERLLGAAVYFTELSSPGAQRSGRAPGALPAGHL


Experiments:
[1] = target: T1, human LAG3, full length, stably …; assay: FACS on 293F cells stably expressing human LAG3
Description: (§1) Briefly the antibodies were incubated with 2×10⁵ target cells at 4° C. for 1 hour. After washing, fluorescence labeled anti-mouse IgG 2nd antibody (Life Technologies) was added and incubated at 4° C. for 1 hour. Geometric median fluorescence intensity (MFI) was detected and EC₅₀ was calculated using GraphPad Prism9.0.
MFI was detected and EC₅₀ was calculated using GraphPad Prism9.0.

[2] = target: T2, mFc tagged human LAG3 ECD recombinant …; assay: competitive FACS: mFc-LAG3 ECD binding to Raji cells (MHC II)
Description: Activity of the purified chimeric antibodies to block LAG3 and MHC II interaction was determined by competitive FACS assay. […] After washing, dye labeled anti-mouse Fc 2nd antibody (Sigma) was added and incubated at 37° C. for 1 hour. Fluorescence intensity was detected.

[3] = target: T3, human LAG3 ECD recombinant protein …; assay: competitive ELISA format I: His-FGL1 binding to coated LAG3 ECD
Description: After washing, HRP labeled anti-His 2nd antibody (Sigma) was added and incubated at 37° C. for 1 hour. Then, 100 μl/well of TMB solution (Biotechnology) was added. After incubation for 15 minutes at room temperature, the reaction was stopped by the addition of 50 μl of 1N HCl. OD 450 nm was read. […] After washing, HRP labeled anti-SA 2nd antibody (Sigma) was added and incubated at 37° C. for 1 hour. Then, 100 μl/well of TMB solution (Biotechnology) was added. After incubation for 15 minutes at room temperature, the reaction was stopped by the addition of 50 μl of 1N HCl. OD 450 nm was read. […] The competition assay of format III is a competitive FACS assay. […] After washing, dye labeled anti-His 2nd antibody (Sigma) was added and incubated at 37° C. for 1 hour. Fluorescence intensity was detected.

[4] = target: T4, hFc tagged human LAG3 D1-D2 recombinant …; assay: ELISA, coated hFc-hLAG3 D1-D2
Description: Binding activity of the purified hybridoma antibodies against human LAG3 was detected by ELISA assay using hFc tagged human LAG3 D1-D2 recombinant protein. Briefly the antibodies were incubated with ELISA microplate coated antigens at 37° C. for 1 hour. After washing, horseradish peroxidase (HRP) labeled anti-human IgG 2nd Ab (Sigma) was added and incubated at 37° C. for 1 hour. Then, 100 μl/well of TMB solution (Biotechnology) was added. After incubation for 15 minutes at room temperature, the reaction was stopped by the addition of 50 μl of 1N HCl. OD 450 nm was read and EC₅₀ was calculated using GraphPad Prism9.0.

[5] = target: T1, human LAG3, full length, stably …; assay: FACS on 293F-human LAG3 cells
Description: as §1

[6] = target: T5, mouse LAG3, full length, stably …; assay: FACS on CHOK1 cells expressing mouse LAG3
Description: as §1

[7] = target: T6, hFc tagged human LAG3 ECD recombinant …; assay: competitive FACS: hFc-LAG3 ECD binding to Raji cells (MHC II)
Description: Competitive FACS assay was used to determine whether the purified hybridoma antibodies can block LAG3 and MHC II interaction. […] After washing, dye labeled anti-human Fc 2nd antibody (Sigma) was added and incubated at 37° C. for 1 hour. Fluorescence intensity was detected.

[8] = target: T6, hFc tagged human LAG3 ECD recombinant …; assay: competitive ELISA: excess competitor, biotin hFc-LAG3 ECD, coated BAP-050
Description: (§2) Competitive ELISA assay was used for epitope binning of the purified hybridoma antibodies. […] After washing, HRP labeled anti-streptavidin (SA) 2nd antibody (Sigma) was added and incubated at 37° C. for 1 hour. Then, 100 μl/well of TMB solution (Biotechnology) was added. After incubation for 15 minutes at room temperature, the reaction was stopped by the addition of 50 μl of 1N HCl. OD 450 nm was read. Competition ratio was calculated.

[9] = target: T6, hFc tagged human LAG3 ECD recombinant …; assay: competitive ELISA: excess competitor, biotin hFc-LAG3 ECD, coated BMS-986016
Description: as §2

| EC50 [1] [nM] | TOP MFI [1] | IC50 [2] [nM] | TOP blocking (%) [2] [%] | Blocking ratio at 66.7 nM (%) [3] [%] | EC50 [4] [nM] | EC50 [5] [nM] | binding result [6] | IC50 [7] [nM] | TOP blocking (%) [7] [%] | % competition [8] [%] | % competition [9] [%] | Binder |
| --- | --- | --- | --- | --- | --- | --- | --- | --- | --- | --- | --- | --- |
| 1.9 | 296 | 5.4 | 77.1 | 43.6 |  |  |  |  |  |  |  | 015c (antibody, human IgG4, V domains shown, human IgG4 S228P / kappa chimeric antibody; also called chimeric antibody 015; not shown: human kappa light chain constant region (pcDNA3.4-hIgGk vector)) VH: EVQLQQSGPVLVKPGASVKLSCKASGFTFTDYYMNWVKLSHGKSLEWIGVINPFNGDTAYKQKFKGKATLTVDKSSSTAYMELNSLTSEDSAVYYCARDDGYYLYYFDSWGQGTTLTVSS VL: DIQMTQSPSSLSASLGERVSLTCRASQDIGSRLNWLQQEPDGTIKRLIYATSSLDSGVPKRFSGSRSGSDYSLTISSLDSEDFVVYYCLQYASSPPTFGAGTKLELK |
|  |  |  |  |  | 0.25 | 2.09 | no binding | 2.7 | 94.3 | 1.6 | 10 | Antibody 015 (antibody, V domains shown, mouse hybridoma antibody) VH: EVQLQQSGPVLVKPGASVKLSCKASGFTFTDYYMNWVKLSHGKSLEWIGVINPFNGDTAYKQKFKGKATLTVDKSSSTAYMELNSLTSEDSAVYYCARDDGYYLYYFDSWGQGTTLTVSS VL: DIQMTQSPSSLSASLGERVSLTCRASQDIGSRLNWLQQEPDGTIKRLIYATSSLDSGVPKRFSGSRSGSDYSLTISSLDSEDFVVYYCLQYASSPPTFGAGTKLELK |
|  |  |  |  |  | 0.04 | 1.38 | no binding | 5.2 | 94.9 | 2.6 | 19.3 | Antibody 039 (antibody, V domains shown, mouse hybridoma antibody) VH: EFQLQQSGPELVKPGASVKISCKASGYSFTDYNLNWVRQSNGKSLEWIGLVDPIYGTIRYNQNFKDKATLTVDQSSSTAYMQLNSLTSEDSAVYYCASIMTAVRYFDHWGQGTTLTVSS VL: DVLMTQTPLFLPVSLGDQASISCRSSLNIVHSDGNTYLEWYLQKPGQSPKLLIYKVSNRFSGVPDRFSGSGSGTDFTLKISGVEAEDLGVYYCFQGSHVPPTFGGGTKLEIK |
